Laboratory results reported in US20120220015.
Residue numbers refer to the chain shown, from its start. Numbers in names are those of the source.

T1: α2-antiplasmin, P08697
T1 chain: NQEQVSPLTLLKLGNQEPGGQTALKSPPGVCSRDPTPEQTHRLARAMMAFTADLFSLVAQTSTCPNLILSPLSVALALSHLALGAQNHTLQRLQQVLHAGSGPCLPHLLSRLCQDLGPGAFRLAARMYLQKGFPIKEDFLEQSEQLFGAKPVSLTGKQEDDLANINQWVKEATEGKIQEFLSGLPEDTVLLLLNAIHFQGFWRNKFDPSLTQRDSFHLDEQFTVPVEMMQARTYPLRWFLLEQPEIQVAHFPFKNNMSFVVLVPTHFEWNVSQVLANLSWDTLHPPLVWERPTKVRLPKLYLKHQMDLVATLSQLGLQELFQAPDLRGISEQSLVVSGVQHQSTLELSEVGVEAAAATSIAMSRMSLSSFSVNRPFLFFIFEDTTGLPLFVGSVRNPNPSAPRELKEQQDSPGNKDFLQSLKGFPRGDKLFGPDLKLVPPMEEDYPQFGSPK

T2: fibrin (clot formed from purified fibrinogen with α-thrombin), P02671
T2 chain 1: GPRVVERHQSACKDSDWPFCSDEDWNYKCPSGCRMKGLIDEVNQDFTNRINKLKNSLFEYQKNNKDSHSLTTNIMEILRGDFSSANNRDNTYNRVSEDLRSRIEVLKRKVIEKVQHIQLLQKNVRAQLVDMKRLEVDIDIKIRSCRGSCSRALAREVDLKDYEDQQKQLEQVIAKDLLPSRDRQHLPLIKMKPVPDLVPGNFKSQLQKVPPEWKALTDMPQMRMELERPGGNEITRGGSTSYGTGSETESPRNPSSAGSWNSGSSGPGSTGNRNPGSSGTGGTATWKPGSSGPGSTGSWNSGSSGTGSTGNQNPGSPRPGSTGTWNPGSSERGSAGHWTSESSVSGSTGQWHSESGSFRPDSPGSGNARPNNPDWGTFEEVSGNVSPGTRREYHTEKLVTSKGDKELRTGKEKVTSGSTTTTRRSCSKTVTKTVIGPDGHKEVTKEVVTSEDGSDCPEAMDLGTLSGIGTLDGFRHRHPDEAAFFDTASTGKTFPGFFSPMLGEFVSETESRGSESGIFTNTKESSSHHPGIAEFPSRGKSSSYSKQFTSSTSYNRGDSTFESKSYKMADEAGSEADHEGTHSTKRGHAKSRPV
T2 chain 2: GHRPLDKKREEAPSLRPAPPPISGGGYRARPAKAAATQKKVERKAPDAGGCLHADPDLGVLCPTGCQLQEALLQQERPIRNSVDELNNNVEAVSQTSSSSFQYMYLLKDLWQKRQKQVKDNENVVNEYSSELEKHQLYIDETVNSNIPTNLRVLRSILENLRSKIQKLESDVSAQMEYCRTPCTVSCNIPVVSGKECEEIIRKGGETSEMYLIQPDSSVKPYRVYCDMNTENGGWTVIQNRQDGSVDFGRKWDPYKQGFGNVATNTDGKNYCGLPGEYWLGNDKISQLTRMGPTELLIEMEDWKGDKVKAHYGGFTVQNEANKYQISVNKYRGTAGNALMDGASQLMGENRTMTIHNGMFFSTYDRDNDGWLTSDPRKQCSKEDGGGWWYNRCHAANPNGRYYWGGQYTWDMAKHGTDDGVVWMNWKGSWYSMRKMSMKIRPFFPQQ
T2 chain 3: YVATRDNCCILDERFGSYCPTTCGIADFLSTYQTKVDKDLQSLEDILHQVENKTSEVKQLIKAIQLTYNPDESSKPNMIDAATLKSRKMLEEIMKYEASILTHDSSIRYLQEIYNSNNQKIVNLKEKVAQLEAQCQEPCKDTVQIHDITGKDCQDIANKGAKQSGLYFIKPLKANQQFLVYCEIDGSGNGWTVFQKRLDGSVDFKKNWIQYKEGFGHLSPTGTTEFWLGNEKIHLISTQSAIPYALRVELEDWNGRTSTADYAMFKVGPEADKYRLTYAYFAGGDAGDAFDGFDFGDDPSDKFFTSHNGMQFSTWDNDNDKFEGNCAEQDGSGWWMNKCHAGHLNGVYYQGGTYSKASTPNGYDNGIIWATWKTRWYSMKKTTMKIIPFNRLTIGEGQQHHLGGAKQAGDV

B1: Lemna-derived plasmin from transgenic line BAP12-B2-150 (aglycosylated plasmin derived from mature human plasminogen with the N289D substitution) (protein)
chain 1: KVYLSECKTGNGKNYRGTMSKTKNGITCQKWSSTSPHRPRFSPATHPSEGLEENYCRNPDNDPQGPWCYTTDPEKRYDYCDILECEEECMHCSGENYDGKISKTMSGLECQAWDSQSPHAHGYIPSKFPNKNLKKNYCRNPDRELRPWCFTTDPNKRWELCDIPRCTTPPPSSGPTYQCLKGTGENYRGNVAVTVSGHTCQHWSAQTPHTHDRTPENFPCKNLDENYCRNPDGKRAPWCHTTNSQVRWEYCKIPSCDSSPVSTEQLAPTAPPELTPVVQDCYHGDGQSYRGTSSTTTTGKKCQSWSSMTPHRHQKTPENYPNAGLTMNYCRNPDADKGPWCFTTDPSVRWEYCNLKKCSGTEASVVAPPPVVLLPDVETPSEEDCMFGNGKGYRGKRATTVTGTPCQDWAAQEPHRHSIFTPETNPRAGLEKNYCRNPDGDVGGPWCYTTNPRKLYDYCDVPQCAAPSFDCGKPQVEPKKCPGR
chain 2: VVGGCVAHPHSWPWQVSLRTRFGMHFCGGTLISPEWVLTAAHCLEKSPRPSSYKVILGAHQEVNLEPHVQEIEVSRLFLEPTRKDIALLKLSSPAVITDKVIPACLPSPNYVVADRTECFVTGWGETQGTFGAGLLKEAQLPVIENKVCNRYEFLNGRVQSTELCAGHLAGGTDSCQGDSGGPLVCFEKDKYILQGVTSWGLGCARPNKPGVYVRVSRFVTWIEGVMRNN
B2: Lemna-derived plasmin from transgenic line BAP01-B2-230 (derived from mature human plasminogen with the N-linked glycosylation site Asn-289) (protein)
chain 1: B1 chain 1 with D212N
chain 2: B1 chain 2

What was measured:
[1] = molecular target: T1, α2-antiplasmin, P08697
[2] = molecular target: T2, fibrin (clot formed from purified …)

Row | Protein | plasmin activity (S-2403 hydrolysis at 405 nm) after 30 minutes pre-incubation with α2-AP, plasmin:α2-AP molar ratio of 1:1 [1] | fibrin clot lysis (decrease of turbidity at 340 nm), plasmin at 500, 250, 125 and 62 nM [2]
1 | B1 | no plasmin activity was detected for human, BAP12-B2-150, or BAP01-B1-230 plasmin, indicating that the inhibition was complete | There was no evidence of a difference between fibrinolysis induced by plasmin derived from BAP01-B2-230 and BAP12-B2-150; their respective lysis profiles were very similar for all four plasmin concentrations
2 | B2 | no plasmin activity was detected for human, BAP12-B2-150, or BAP01-B1-230 plasmin, indicating that the inhibition was complete | There was no evidence of a difference between fibrinolysis induced by plasmin derived from BAP01-B2-230 and BAP12-B2-150; their respective lysis profiles were very similar for all four plasmin concentrations
